Data as given in the supplement of paper PMC10567573.

B1: PPEF2 (parent)
chain: FIPSSHNDRDFLTRIFTEDRFAQD

Variants of: B1
Assay: protein stability index of a GFP-peptide fusion (GPS, HEK-293T) (PSI 1-6); higher = more stable
Settings: c terminus: a fixed tail appended
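Also: lentivirally expressed fusions sorted by FACS into six bins by GFP to DsRed ratio, PSI derived from sequencing read proportions per bin multiplied by bin number.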

Variant	protein stability index
FIPSSHNDRDFLTHIFTEDRFAQD [R14H]	2.04
FIPSSHNDRDFLTVIFTEDRFAQD [R14V]	3.04
FIPSSHNDRDFLTSIFTEDRFAQD [R14S]	3.48
FIPSSHNDRDFLTCIFTEDRFAQD [R14C]	1.78
FIPSSHNDRDFLTYIFTEDRFAQD [R14Y]	1.7
FIPSSHNDRDFLTDIFTEDRFAQD [R14D]	2.5
FIPSSHNDRDFLTAIFTEDRFAQD [R14A]	1.58
FIPSSHNDRDFLTFIFTEDRFAQD [R14F]	2.7
FIPSSHNDRDFLTMIFTEDRFAQD [R14M]	2.55
FIPSSHNDRDFLTWIFTEDRFAQD [R14W]	2.5
FIPSSHNDRDFLTTIFTEDRFAQD [R14T]	2.36
FIPSSHNDRDFLTIIFTEDRFAQD [R14I]	2.61
FIPSSHNDRDFLTPIFTEDRFAQD [R14P]	2.81
FIPSSHNDRDFLTEIFTEDRFAQD [R14E]	2.34
FIPSSHNDRDFLTNIFTEDRFAQD [R14N]	2.12
FIPSSHNDRDFLTLIFTEDRFAQD [R14L]	2
FIPSSHNDRDFLTKIFTEDRFAQD [R14K]	1.55
FIPSSHNDRDFLTQIFTEDRFAQD [R14Q]	1.93
FIPSSHNDRDFLTGIFTEDRFAQD [R14G]	1.95
FIPSSHNDRYFLTRIFTEDRFAQD [D10Y]	2.39
FIPSSHNDRWFLTRIFTEDRFAQD [D10W]	2.6
FIPSSHNDRDFLTRIFNEDRFAQD [T17N]	1.68
FIPSSHNDRDFLTRIFKEDRFAQD [T17K]	3.08
FIPSSHNDRDFLTRIFAEDRFAQD [T17A]	1.71

Variant	protein stability index
FIPSSHNDRDFLTRIFVEDRFAQD [T17V]	1.85
FIPSSHNDRDFLTRIFSEDRFAQD [T17S]	2.05
FIPSSHNDRDFLTRIFIEDRFAQD [T17I]	2.08
FIPSSHNDRDFLTRIFEEDRFAQD [T17E]	2.19
FIPSSHNDRDFLTRIFFEDRFAQD [T17F]	1.87
FIPSSHNDRDFLTRIFHEDRFAQD [T17H]	1.54
FIPSSHNDRDFLTRIFREDRFAQD [T17R]	1.73
FIPSSHNDRDFLTRIFYEDRFAQD [T17Y]	2.08
FIPSSHNDRDFLTRIFCEDRFAQD [T17C]	3.8
FIPSSHNDRDFLTRIFPEDRFAQD [T17P]	1.97
FIPSSHNDRDFLTRIFLEDRFAQD [T17L]	2.65
FIPSSHNDRDFLTRIFMEDRFAQD [T17M]	2.54
FIPSSHNDRDFLTRIFGEDRFAQD [T17G]	2.7
FIPSSHNDRDFLTRIFQEDRFAQD [T17Q]	1.79
FIPSSHNDRDFLTRIFDEDRFAQD [T17D]	1.95
FIPSSHNDRDFLTRIFWEDRFAQD [T17W]	2.79
FIPSSHNDRDFRTRIFTEDRFAQD [L12R]	1.72
FIPSSHNDRDFETRIFTEDRFAQD [L12E]	2.2
FIPSSHNDRDFGTRIFTEDRFAQD [L12G]	1.52
FIPSSHNDRDFTTRIFTEDRFAQD [L12T]	2.17
FIPSSHNDRDFHTRIFTEDRFAQD [L12H]	2.33
FIPSSHNDRDFKTRIFTEDRFAQD [L12K]	2.38
FIPSSHNDRDFVTRIFTEDRFAQD [L12V]	2.86
FIPSSHNDRDFITRIFTEDRFAQD [L12I]	3.01

Variant	protein stability index
FIPSSHNDRDFCTRIFTEDRFAQD [L12C]	2.29
FIPSSHNDRDFMTRIFTEDRFAQD [L12M]	1.53
FIPSSHNDRDFQTRIFTEDRFAQD [L12Q]	1.82
FIPSSHNDRDFWTRIFTEDRFAQD [L12W]	2.85
FIPSSHNDRDFSTRIFTEDRFAQD [L12S]	1.54
FIPSSHNDRDFFTRIFTEDRFAQD [L12F]	2.18
FIPSSHNDRDFYTRIFTEDRFAQD [L12Y]	1.98
FIPSSHNDRDFPTRIFTEDRFAQD [L12P]	1.74
FIPSSHNDRDFDTRIFTEDRFAQD [L12D]	2.26
FIPSSHNDRDFNTRIFTEDRFAQD [L12N]	1.45
FIPSSHNDRDFATRIFTEDRFAQD [L12A]	2.82
FIPSSHNDRDFLTRIFTADRFAQD [E18A]	2.64
FIPSSHNDRDFLTRIFTRDRFAQD [E18R]	2.16
FIPSSHNDRDFLTRIFTLDRFAQD [E18L]	2.19
FIPSSHNDRDFLTRIFTWDRFAQD [E18W]	2.25
FIPSSHNDRDFLTRIFTFDRFAQD [E18F]	2.52
FIPSSHNDRDFLTRIFTMDRFAQD [E18M]	2.96
FIPSSHNDRDFLTRIFTGDRFAQD [E18G]	1.48
FIPSSHNDRDFLTRIFTTDRFAQD [E18T]	2.27
FIPSSHNDRDFLTRIFTDDRFAQD [E18D]	2.37
FIPSSHNDRDFLTRIFTNDRFAQD [E18N]	2.12
FIPSSHNDRDFLTRIFTVDRFAQD [E18V]	2.51
FIPSSHNDRDFLTRIFTIDRFAQD [E18I]	3.03
FIPSSHNDRDFLTRIFTCDRFAQD [E18C]	2.79

Variant	protein stability index
FIPSSHNDRDFLTRIFTQDRFAQD [E18Q]	1.71
FIPSSHNDRDFLTRIFTYDRFAQD [E18Y]	1.54
FIPSSHNDRDFLTRIFTSDRFAQD [E18S]	2.18
FIPSSHNDRDFLTRIFTHDRFAQD [E18H]	3.19
FIPSSHNDRDFLTRIFTKDRFAQD [E18K]	2.47
FIPSSHNDRDFLTRIFTPDRFAQD [E18P]	2.98
FIPSSHNDRDFLTRRFTEDRFAQD [I15R]	2.9
FIPSSHNDRDFLTRPFTEDRFAQD [I15P]	1.91
FIPSSHNDRDFLTRAFTEDRFAQD [I15A]	1.61
FIPSSHNDRDFLTRSFTEDRFAQD [I15S]	1.84
FIPSSHNDRDFLTRFFTEDRFAQD [I15F]	2.2
FIPSSHNDRDFLTRKFTEDRFAQD [I15K]	2.77
FIPSSHNDRDFLTRHFTEDRFAQD [I15H]	2.4
FIPSSHNDRDFLTRGFTEDRFAQD [I15G]	1.98
FIPSSHNDRDFLTRDFTEDRFAQD [I15D]	2.01
FIPSSHNDRDFLTRNFTEDRFAQD [I15N]	1.83
FIPSSHNDRDFLTREFTEDRFAQD [I15E]	2.44
FIPSSHNDRDFLTRWFTEDRFAQD [I15W]	2.66
FIPSSHNDRDFLTRYFTEDRFAQD [I15Y]	2.22
FIPSSHNDRDFLTRLFTEDRFAQD [I15L]	1.56
FIPSSHNDRDFLTRCFTEDRFAQD [I15C]	3.07
FIPSSHNDRDFLTRTFTEDRFAQD [I15T]	2.45
FIPSSHNDRDFLTRMFTEDRFAQD [I15M]	2.24
FIPSSHNDRDFLTRQFTEDRFAQD [I15Q]	2.19

Variant	protein stability index
FIPSSHNDRDQLTRIFTEDRFAQD [F11Q]	2
FIPSSHNDRDALTRIFTEDRFAQD [F11A]	1.98
FIPSSHNDRDDLTRIFTEDRFAQD [F11D]	2.74
FIPSSHNDRDKLTRIFTEDRFAQD [F11K]	1.76
FIPSSHNDRDELTRIFTEDRFAQD [F11E]	2.33
FIPSSHNDRDSLTRIFTEDRFAQD [F11S]	1.58
FIPSSHNDRDTLTRIFTEDRFAQD [F11T]	1.7
FIPSSHNDRDPLTRIFTEDRFAQD [F11P]	2.16
FIPSSHNDRDLLTRIFTEDRFAQD [F11L]	1.56
FIPSSHNDRDNLTRIFTEDRFAQD [F11N]	2.67
FIPSSHNDRDILTRIFTEDRFAQD [F11I]	1.8
FIPSSHNDRDHLTRIFTEDRFAQD [F11H]	1.89
FIPSSHNDRDVLTRIFTEDRFAQD [F11V]	2.01
FIPSSHNDRDCLTRIFTEDRFAQD [F11C]	2.8
FIPSSHNDRDGLTRIFTEDRFAQD [F11G]	2.21
FIPSSHNDRDRLTRIFTEDRFAQD [F11R]	1.99
FIPSSHNDRDWLTRIFTEDRFAQD [F11W]	1.93
FIPSSHNDRDYLTRIFTEDRFAQD [F11Y]	2.1
FIPSSHNDRDMLTRIFTEDRFAQD [F11M]	2.13
FIPSSHNDRDFLTRIATEDRFAQD [F16A]	1.76
FIPSSHNDRDFLTRIDTEDRFAQD [F16D]	2.18
FIPSSHNDRDFLTRISTEDRFAQD [F16S]	1.72
FIPSSHNDRDFLTRIMTEDRFAQD [F16M]	1.84
FIPSSHNDRDFLTRIPTEDRFAQD [F16P]	2.96

Variant	protein stability index
FIPSSHNDRDFLTRIGTEDRFAQD [F16G]	1.92
FIPSSHNDRDFLTRIHTEDRFAQD [F16H]	1.69
FIPSSHNDRDFLTRIITEDRFAQD [F16I]	1.83
FIPSSHNDRDFLTRILTEDRFAQD [F16L]	1.91
FIPSSHNDRDFLTRIKTEDRFAQD [F16K]	1.47
FIPSSHNDRDFLTRIETEDRFAQD [F16E]	2.02
FIPSSHNDRDFLTRINTEDRFAQD [F16N]	2.12
FIPSSHNDRDFLTRICTEDRFAQD [F16C]	2.48
FIPSSHNDRDFLTRIYTEDRFAQD [F16Y]	1.21
FIPSSHNDRDFLTRIVTEDRFAQD [F16V]	2.6
FIPSSHNDRDFLTRIQTEDRFAQD [F16Q]	2.06
FIPSSHNDRDFLTRITTEDRFAQD [F16T]	2.59
FIPSSHNDRDFLTRIRTEDRFAQD [F16R]	1.88
FIPSSHNDRDFLTRIFTEDVFAQD [R20V]	1.99
FIPSSHNDRDFLTRIFTEDAFAQD [R20A]	2.05
FIPSSHNDRDFLTRIFTEDQFAQD [R20Q]	2.15
FIPSSHNDRDFLTRIFTEDGFAQD [R20G]	1.69
FIPSSHNDRDFLTRIFTEDSFAQD [R20S]	2.65
FIPSSHNDRDFLTRIFTEDEFAQD [R20E]	1.81
FIPSSHNDRDFLTRIFTEDCFAQD [R20C]	2.1
FIPSSHNDRDFLTRIFTEDDFAQD [R20D]	2.42
FIPSSHNDRDFLTRIFTEDHFAQD [R20H]	3.22
FIPSSHNDRDFLTRIFTEDIFAQD [R20I]	1.32
FIPSSHNDRDFLTRIFTEDWFAQD [R20W]	2.54

Variant	protein stability index
FIPSSHNDRDFLTRIFTEDTFAQD [R20T]	1.47
FIPSSHNDRDFLTRIFTEDLFAQD [R20L]	2.05
FIPSSHNDRDFLTRIFTEDMFAQD [R20M]	1.39
FIPSSHNDRDFLTRIFTEDFFAQD [R20F]	2.24
FIPSSHNDRDFLTRIFTEDPFAQD [R20P]	2.41
FIPSSHNDRDFLTRIFTEDYFAQD [R20Y]	2.37
FIPSSHNDRDFLTRIFTEDKFAQD [R20K]	2.11
FIPSSHNDRDFLTRIFTEDNFAQD [R20N]	2.07
FIPSSHNDRDFLQRIFTEDRFAQD [T13Q]	1.55
FIPSSHNDRDFLLRIFTEDRFAQD [T13L]	3.13
FIPSSHNDRDFLCRIFTEDRFAQD [T13C]	2.75
FIPSSHNDRDFLNRIFTEDRFAQD [T13N]	1.7
FIPSSHNDRDFLGRIFTEDRFAQD [T13G]	2.42
FIPSSHNDRDFLIRIFTEDRFAQD [T13I]	2.21
FIPSSHNDRDFLDRIFTEDRFAQD [T13D]	1.83
FIPSSHNDRDFLKRIFTEDRFAQD [T13K]	1.38
FIPSSHNDRDFLHRIFTEDRFAQD [T13H]	1.6
FIPSSHNDRDFLRRIFTEDRFAQD [T13R]	1.91
FIPSSHNDRDFLSRIFTEDRFAQD [T13S]	1.83
FIPSSHNDRDFLYRIFTEDRFAQD [T13Y]	2.65
FIPSSHNDRDFLARIFTEDRFAQD [T13A]	2.57
FIPSSHNDRDFLERIFTEDRFAQD [T13E]	2
FIPSSHNDRDFLFRIFTEDRFAQD [T13F]	1.5
FIPSSHNDRDFLVRIFTEDRFAQD [T13V]	1.8

Variant	protein stability index
FIPSSHNDRDFLPRIFTEDRFAQD [T13P]	1.82
FIPSSHNDRDFLTRIFTEHRFAQD [D19H]	1.54
FIPSSHNDRDFLTRIFTEMRFAQD [D19M]	3.16
FIPSSHNDRDFLTRIFTEQRFAQD [D19Q]	1.68
FIPSSHNDRDFLTRIFTESRFAQD [D19S]	2.51
FIPSSHNDRDFLTRIFTEERFAQD [D19E]	2.32
FIPSSHNDRDFLTRIFTENRFAQD [D19N]	1.57
FIPSSHNDRDFLTRIFTERRFAQD [D19R]	1.8
FIPSSHNDRDFLTRIFTEGRFAQD [D19G]	2.46
FIPSSHNDRDFLTRIFTECRFAQD [D19C]	2.12
FIPSSHNDRDFLTRIFTEYRFAQD [D19Y]	1.79
FIPSSHNDRDFLTRIFTEWRFAQD [D19W]	1.99
FIPSSHNDRDFLTRIFTEKRFAQD [D19K]	2.44
FIPSSHNDRDFLTRIFTEPRFAQD [D19P]	1.99
FIPSSHNDRDFLTRIFTEVRFAQD [D19V]	2.14
FIPSSHNDRDFLTRIFTEFRFAQD [D19F]	1.77
FIPSSHNDRDFLTRIFTEIRFAQD [D19I]	2.76
FIPSSHNDRDFLTRIFTELRFAQD [D19L]	1.96
FIPSSHNDRDFLTRIFTEARFAQD [D19A]	3.2
FIPSSHNDRDFLTRIFTETRFAQD [D19T]	2.8
